Measured values from the DeepSol protein solubility set.

Test: soluble on expression in E. coli; label from the status in PepcDB or PDB records

Row | Sequence | soluble on expression in E. coli
1 | MKVIIFYTKTGGGHLSACKSLEESLNSMNIPVVTLDSLEFAGHLVSKEICSAYNYIVKSVPELFGALYNAGEKISDHNKKSIIYKLNSFYADNILTVLEEEQPDIIISTHIFATQSLSYLKQKNKVKALTASIVTDYTCAPFWEETDLDYYFLPHKDLIKEFKDKGLDSSKLIAFGLPIDSKFKVKTPKEKAKFNLALKKDKPHILIMGGSMGAGSVKDTTLYISKHLKECNITTICGNNKELFKEISEIKKSNPKIHVLQFTHEMNELMDSADILITKPGGLTSTEAMNKSLPIIMINPIPGVESANCNFFMKHNLGIKSNSLHETLKVCEKLISDKNFYEKIVSSQKLNSNINAAEDICKFLITKYHEIQYNSDNNSLLEHHHHHH | soluble
2 | MKVLGLIVEYNPFHNGHLYHLEESKKISGADFVVCVMSGNFIQRGEPAIVNKWARTKMALSAGADLVIELPLSCAMASAEYFASGAVRILNDIGIVDYICFGSEHGDVKTLDYIAQILVEEPESYKSFLKEELDNGLSYPAARESALKKYTAHSINIPQIISSSNNILGIEYLKALRRIKSSIIPLTIKRINNDYNTENITGSISSASSIRKYISTSNSTSFDDVLAMTMPKTSVDILFEEFSAGRGPVFKEDFYPVVTSLIRKMTPEQIRNFAYVSEGLENRIKSAADTAGTYEELVESICTRRYTKTRVQRILMGILMGVTSKDLDMLSRFDSPQYARILGFNSKGKQLLSQIKKKSSIPLVLKLSDFIKSCDPVLKRKLELEILATDLYVMCYKNPAFRKAGQEFTQNIIIM | soluble
3 | MKVLTVFGTRPEAIKMAPLVHALAKDPFFEAKVCVTAQHREMLDQVLKLFSIVPDYDLNIMQPGQGLTEITCRILEGLKPILAEFKPDVVLVHGDTTTTLATSLAAFYQRIPVGHVEAGLRTGDLYSPWPEEANRTLTGHLAMYHFSPTETSRQNLLRENVADSRIFITGNTVIDALLWVRDQVMSSDKLRSELAANYPFIDPDKKMILVTGHRRESFGRGFEEICHALADIATTHQDIQIVYPVHLNPNVREPVNRILGHVKNVILIDPQEYLPFVWLMNHAWLILTDSGGIQEEAPSLGKPVLVMRDTTERPEAVTAGTVRLVGTDKQRIVEEVTRLLKDENEYQAMSRAHNPYGDGQACSRILEALKNNRISLGSHHHHHH | soluble
4 | MKVLVVGNGGREHAIAWKVAQSPLVKELYVAKGNAGIWEIAKRVDISPTDVEKLAEFAKNEGVDFTIVGPEAPLVEGIVDEFEKRGLKIFGPNKEAAKLEGSKAFAKTFMKKYGIPTARYEVFTDFEKAKEYVEKVGAPIVVKADGLAAGKGAVVCETVEKAIETLDRFLNKKIFGKSSERVVIEEFLEGEEASYIVMINGDRYVPLPTSQDHKRLLDEDKGPNTGGMGAYSPTPVINEEVEKRIREEIVERVIKGLKEEGIYYRGFLYAGLMITKEGPKVLEFNVRLGDPEAQPILMRVKNDFLETLLNFYEGKDVHIKEDERYALDVVLASRGYPEKPETGKIIHGLDYLKSMEDVVVFHAGTKKEGNFTVTSGGRVLNVCAYGKTLKEAKERAYEAIRYVCFEGMHYRKDIGDKAFKYLSE | soluble
5 | MKVMIEKILLVQTLKRLPRMGWLIKGVQEPESIADHSFGVAFITLVLADVLEKRGKRIDVEKALKMAIVHDLAEAIITDIPLSAQEFVDKDKAEALVFKKVFPEFYELYREYQECSSPEAQLVRIADKLDMILQAYQYELSGNKNLDEFWEAIEEIKRLELSKYLEDILNSVGRLKA | soluble
6 | MKVTQLSSETLDRAHERFEETLAQMTVAEANTMPAPLIKSVTWLMWHTARELDLQISALNHSDPLWLSQHWTEKFALDLPDETEDWHHTPEEAAKVVVAEKQLLSDYLAASVALTKSYLDQIKEEQLSDVIDKNWTPPVTRQVRLVSAIDDAVMHSGQAVYTRRLVIGK | soluble
7 | MKVVLATGNPGKVRELKEGLAPLGWTLLTLADFALRMPKEEGATFLENALLKAAYVAKATGLPALADDSGLEVYALGGEPGVYSARYGGRATDRERNVYLLERMRHLKGEERKARFVAVLVLAYPDGHAEAYEGSVEGVILEAPRGEGGFGYDPLFYVPEAGKTFAEMGLEEKARYSHRGKALRALLEAYKDGPPPREVSKLE | soluble
8 | MKVVLQRVTRAAVTVGDEVVGSIGRGLCVLVGVHRDDTEEDMKYIIRKILNLRVFPASEQKPWDKSVMDLDLEVLSVSQFTLYGQFKGNKLDFHTAMAPTEASKFYASFLEAMKKAYKADKIQDGKFAAMMSVDIVNDGPVTVTFDSKEK | not soluble
9 | MKYEVVITSGNSNQAPIGAFFKGDFVTLHLYGGSHTFENLQKDGFYILNTCSPYLIAKSVLDDAGDYEYLDNDGIKIPYLKDSYKIELIEIKSRKIVETKNEFGSSKLMIVEGKPIFEKILNCNTSAYNRADGAVVEMAVLYSRKNMISKEEINDEITRLMKIIKKVGSKNHIELAKKLGV | soluble
10 | MKYKAVLVDFGNTLVGFKPVFYEKVYQVLKDNGYDLDLRKVFRAYAKAMGMINYPDEDGLEHVDPKDFLYILGIYPSERLVKELKEADIRDGEAFLYDDTLEFLEGLKSNGYKLALVSNASPRVKTLLEKFDLKKYFDALALSYEIKAVKPNPKIFGFALAKVGYPAVHVGDIYELDYIGAKRSYVDPILLDRYDFYPDVRDRVKNLREALQKIEEMNKE | soluble
11 | MKYKKLLFDLIDYLDAFESLHDGGSHEPEIKDFADFLSWRCGKKKKQEEEVVSVTRERAAGAKNIARGVSLLHRYSRFYIKKALTESPLQTEDEYTYLVSLMNGESMTKTELNNLNAMEKTSGAEVMRRLLKANLIEQRPDEEDRRSMRVSITPEGRKVLVNLFPNLRLCAETLVSALSDEQLTAFDHLLWLLCECHNEMFTGKHDAELTDLHAETCGLKQSAGGALSKRLYRR | not soluble
12 | MKYQAAIFDMDGLLLDTERVCMRIFQEACEVQNLPFYEDVYLSIIGRNAAGIETIFRKAYGENLDRLHLEWRTRYNAVVKHQAIP | not soluble
13 | MKYSLCTISFRHQLISFTDIVQFAYENGFEGIELWGTHAQNLYMQEYETTERELNCLKDKTLEITMISDYLDISLSADFEKTIEKCEQLAILANWFKTNKIRTFAGQKGSADFSQQERQEYVNRIRMICELFAQHNMYVLLETHPNTLTDTLPSTLELLGEVDHPNLKINLDFLHIWESGADPVDSFQQLRPWIQHYHFKNISSADYLHVFEPNNVYAAAGNRTGMVPLFEGIVNYDEIIQEVRDTDHFASLEWFGHNAKDILKAEMKVLTNRNLEVVTSENLYFQ | soluble
14 | MLADPAQPEHVFIVEDSRGATELKLYKSHYTIGKADSCDIRLHSIYASRQHATLVRFLTENGEVRYRLIDGDPETSRRSANGTYVNNRSITECDLKHYDQILFGADVKATYFYLSPQFRSLEHHHHHH | not soluble
15 | MLAERLVNDYDVEVLTTCVKNYVTGDNEYPEGEEILNGVLVRRFYSDPVEPDLHKSYVRQAAPAKKWRHFLYRCRLLKPLSYVKPIWHYKEQEEIKALNSQVFYSSSMYAFIRENKASYRAFIPLSFFPHTYYTALYAPEKTILIPTMHNNGSSFRSIITSVFSEVAYIGFNIEAEQKLVENIVGKPLAAHGIISVGIEKTKAADWEQTKVKYNLPEDYLLYVGRIDAIKLNNIVDYFLSYKKKYVGSRLKLVLVGGIFGKTVEHPDIIYTGFVDDAEKVAIQLNAKVIVNPSRYESLSLILLETMSEGKAMLVNGRCNVLREHCEKSNYAALYYMNRRDFMRKLHNLENSETLRQQMGEKGRHYVQENYNWEMIIGRMKNVIQMLS | not soluble
16 | MLALGIEGTAHTLGIGIVSEDKVLANVFDTLTTEKGGIHPKEAAEHHARLMKPLLRKALSEAGVSLDDIDVIAFSQGPGLGPALRVVATAARALAVKYRKPIVGVNHCIAHVEITKMFGVKDPVGLYVSGGNTQVLALEGGRYRVFGETLDIGIGNAIDVFARELGLGFPGGPKVEKLAEKGEKYIELPYAVKGMDLSFSGLLTEAIRKYRSGKYRVEDLAYSFQETAFAALVEVTERAVAHTEKDEVVLVGGVAANNRLREMLRIMTEDRGIKFFVPPYDLCRDNGAMIAYTGLRMYKAGISFRLEETIVKQKFRTDEVEIVWHHHHHH | soluble
17 | MLAPERIHPALWRATQLAHGPTRKLPTGYADLSAQLPGGGWPLGALVELLLPQPGSGEIRLLRPALAQLEARRAIALVQPPHAPHIASWASWRLDPRQLLWVAPERPADALWAAEQILKAGSCAALLCWLPQVRPESLRRLHLAAQGGDALFVALRPAAAEQHASPAVLRLALAPAPGGLSIRIVKRRGPACEHPVHVGLEAGAGLSVFPAPHAPLDRRLPAQPVAGRRTPALVSLEHHHHHH | not soluble
18 | MLCCPDPRRRGQHNNRRRNAMPKLHESRIHDLRPTQLTVGMIEVQAKKTHLAAMAPADQQAFMQAHPIPAVLGPGGQLYITDHHHLGRAALDAGVITGYFMVEADLSQHSLDDFWKAMDQNLWVHPLDEHGVRHYYASIPKHLEKLVDDPYRSLAGYVRDAGGYDKTPTAFAEFVWADFFRRSIPIEDLLADFQAAVHAALPLAKSKFAKALPGYNGKLEHHHHHH | not soluble
19 | MLDGLVVGGGLAGLTAARVLTRAGRRVRVLEAAPEVGGRVRSRELEGFTLDAGFQVLFPAYPAVRRQLNLDALDLVPLPSAAALRRGAREDVLGSPLDDLASLPSTLKSGALTLGDKLRVARLAASLRTPAAHELLIGSDESTESFLRGQGFSEAALDHFFRPFFGGIFLRRDLATSARLFRYYFRMLMDGGAALPRRGMGELSRQLAQGSDLLTGVRVSRLLPRPGYVTAVTSAGEIDARQVIVATEAPTASDLTGEALSRGALSSTYLYYATPQRISGQHRLLLNAETGLINNAQWTSLAVPGRAPTGQHLLTVTVLGLPDLDDASLDARVRGELTRWYGAEAVGTLRLLMLERIPYAQFEQPAGYAATLPGHATSLPGVLLASEITSMSGIQGALESGEKAAAIVLGDLAALSRPRGALEHHHHHH | not soluble
20 | MLDRPHHTTADIIARCEALFSDLSFTAAREWKAAEPGRIVVGFLPYYAPRELVHAAGGLPLGIFGGGDQLEVIHGDAYYQSYICRIPRSTIELGVSGRLDFVDGMMFPSICDVIRNLSGMWKLMFPSKGARYIDLPHNFDDDLGGEFYVSELRETCEWLSTLTGKPITSDAIRASIAVFNDNRRLIRALYQLRADEPWNVPSSELYLLLRAGMVIPVEEHNQMLADYLAAVRLQQRPIKDNSRVVICGMFCEQPPLNLIKSIELSGCYIVDDDFILVTRWENSDVALDGDPLSNLASAYLHDSKSTPPKYEPDEAKKGLYLVDSVRKNRAEGVIFAMTSFCDPGLLERPMLQAVLKSHGIPQIAFKYAENSGQMQPIREQAGTFADSIKLWSGA | not soluble
21 | MLEALKTANKTVGMKQSLKAVESLKAKQVFIAKDADEHVVARIKELCIKNNIPIVYVDTMKQLGKACNIDVGASVACLL | not soluble
22 | MLEDLSQGKGSNHEKRKMESTAQITEEDSKLDEVVGLQKQICDLGTELTRQSSWWCIAHKDLQSQIDALIKENQEIRAELKTLKKQDAEATKACIGSPTPARASNTLPVYIKIEGTDSERTTSWDERDELSGSPPNRSTMATGGTDSQDEMLSFTSVDEKVIHMSSKFLQRSLGRMSPEPLSDSTFLDTESLADIWSSNPETSDGELLLHAQASRVIPCFSPNALWVQNIPTKSRAPKEIQQTSDTTKTDETKEKQHPNGKVERMLSDGRTIITFPNGTRKEISADKKTTLIRFFNGDMKKIKSNQKVIYYYADAQTMHTTYPDGVEVVQFPNKWTEKFYPDGSKETVFPDGTVKRLKDGCEETVFPDGTFVTVKRNGDKTIMFSNGEKEIHTARFKRKEFPDGTTKTVYCNGCQETKYASGRVRVKDEKGTVILDWK | not soluble
